# Results taken from the supplement of paper PMC7877785.
# ± gives the uncertainty stated by the source.
# Assay: self-splicing fitness, log relative to wild type (ln ratio); higher = more splicing; Tetrahymena group I intron in knt gene, E. coli kanamycin selection, DiMSum; sequences stand for … in CUCUCU…GGAGGGAAAAGUUAUCAGGCAUGCACCUGGUAGCUAGUCUUUAAACCAAUAGAUUGCAUCGGUUUAAAAGGCAAGACCGUCAAAUUGCGGGAAAGGGGUCAACAGCCGUUCAGUACCAAGUCUCAGGGGAAACUUUGAGAUGGCCUUGCAAAGGGUAUGGUAAUAAGCUGACGGACAUGGUCCUAACCACGCAGCCAAGUCCUAAGUCAACAGAUCUUCUGUUGAUAUGGAUGCAGUUCACAGACUAAAUGUCGGUCGGGGAAGAUGUAUUCUUCUCAUAAGAUAUAGUCGGACCUCUCCUUAAUGGGAGCUAGCGGAUGAAGUGAUGCAACACUGGAGCCGCUGGGAACUAAUUUGUAUGCGAAAGUAUAUUGAUUAGUUUUGGAGUACUCGUGGUCG
# Summary of the method: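 A randomised library covering all eight P1ex-region intron nucleotides was built with the intron in the knt kanamycin-resistance gene on pET-22b(+) and held in E. coli BL21(DE3). Cells were grown overnight at 37°C or 30°C on LB agar, with or without 25 μg/mL kanamycin, plus 100 μg/mL carbenicillin, 50 μM IPTG and 0.2% rhamnose, and pooled colonies were amplicon-sequenced on an Illumina HiSeq 2500. DiMSum fitness is the error-weighted combination of wild-type-normalised replicate fold changes, kanamycin versus none.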
Sequence,self-splicing fitness (ln) (30 °C),self-splicing fitness (ln) (37 °C)
AACAAGCAAUAUUACGACUA,-0.0433 ± 0.095,0.555 ± 0.1
AACAAGCAAUAUUACGAUAG,-3.24 ± 0.17,-2.24 ± 0.18
AACAAGCAAUAUUACGCAUG,-1.7 ± 0.082,-0.726 ± 0.1
AACAAGCAAUAUUACGCGCU,-0.49 ± 0.07,-0.454 ± 0.078
AACAAGCAAUAUUACGCUAG,-3.74 ± 0.19,-1.98 ± 0.15
AACAAGCAAUAUUACGCUGG,-2.25 ± 0.081,-1.04 ± 0.1
AACAAGCAAUAUUACGCUUU,-3.18 ± 0.15,-2.77 ± 0.18
AACAAGCAAUAUUACGGAAA,-3.08 ± 0.15,-1.34 ± 0.11
AACAAGCAAUAUUACGGCUC,-0.27 ± 0.071,0.236 ± 0.1
AACAAGCAAUAUUACGGGGG,-2.94 ± 0.17,-1.86 ± 0.17
AACAAGCAAUAUUACGGUAC,-3.04 ± 0.16,-1.99 ± 0.18
AACAAGCAAUAUUACGGUUA,-0.694 ± 0.058,-0.134 ± 0.064
AACAAGCAAUAUUACGUAGA,-2.88 ± 0.089,-0.993 ± 0.077
AACAAGCAAUAUUACGUAGU,-2.37 ± 0.11,-1.47 ± 0.12
AACAAGCAAUAUUACGUCCU,0.214 ± 0.064,0.0455 ± 0.074
AACAAGCAAUAUUACGUGAA,-2.08 ± 0.082,-0.353 ± 0.081
AACAAGCAAUAUUACGUGGG,-2.93 ± 0.12,-2.95 ± 0.13
AACAAGCAAUAUUACGUGUU,-4.01 ± 0.19,-2.05 ± 0.12
AACAAGCAAUAUUACGUUAU,-3.49 ± 0.16,-2.13 ± 0.12
AACAAGCAAUAUUACGUUCU,-2.01 ± 0.064,-1.16 ± 0.094
AACCAGCAAUAUUACGAAAA,-1.54 ± 0.099,-1.3 ± 0.1
AACCAGCAAUAUUACGAAAC,-2.26 ± 0.14,-0.477 ± 0.16
AACCAGCAAUAUUACGAAGU,-2.26 ± 0.066,-0.559 ± 0.069
AACCAGCAAUAUUACGAGCU,-2.52 ± 0.087,-1.82 ± 0.1
AACCAGCAAUAUUACGAUUA,-0.368 ± 0.056,-0.164 ± 0.067
AACCAGCAAUAUUACGAUUC,-1.63 ± 0.071,-0.153 ± 0.084

Sequence,self-splicing fitness (ln) (30 °C),self-splicing fitness (ln) (37 °C)
AACCAGCAAUAUUACGCAUA,-0.88 ± 0.078,0.309 ± 0.089
AACCAGCAAUAUUACGCAUG,-1.7 ± 0.082,-0.971 ± 0.083
AACCAGCAAUAUUACGCCCA,-0.618 ± 0.22,-0.865 ± 0.18
AACCAGCAAUAUUACGCCGA,-0.252 ± 0.11,-0.169 ± 0.11
AACCAGCAAUAUUACGCCUU,-0.506 ± 0.053,0.096 ± 0.07
AACCAGCAAUAUUACGCGAG,-1.21 ± 0.063,-0.492 ± 0.072
AACCAGCAAUAUUACGCGUG,-1.09 ± 0.057,-0.149 ± 0.063
AACCAGCAAUAUUACGCUUU,-1.42 ± 0.084,-1.05 ± 0.09
AACCAGCAAUAUUACGGCAG,-1.02 ± 0.058,-0.17 ± 0.08
AACCAGCAAUAUUACGGCUC,-1.34 ± 0.1,-0.82 ± 0.11
AACCAGCAAUAUUACGGUAA,-0.741 ± 0.051,-0.682 ± 0.058
AACCAGCAAUAUUACGGUGA,-1.19 ± 0.065,-0.538 ± 0.078
AACCAGCAAUAUUACGUAAC,-2.5 ± 0.094,-1.15 ± 0.11
AACCAGCAAUAUUACGUAGC,-2.7 ± 0.089,-2.17 ± 0.11
AACCAGCAAUAUUACGUCGU,-1.26 ± 0.046,-0.25 ± 0.058
AACCAGCAAUAUUACGUCUC,-1.23 ± 0.056,-0.774 ± 0.076
AACCAGCAAUAUUACGUGAG,-0.744 ± 0.04,-0.39 ± 0.067
AACCAGCAAUAUUACGUGUU,-3.59 ± 0.11,-2.47 ± 0.12
AACGAGCAAUAUUACGAACU,-1.11 ± 0.13,-1.42 ± 0.16
AACGAGCAAUAUUACGAGUU,-3.48 ± 0.32,-2.1 ± 0.22
AACGAGCAAUAUUACGAUGG,-3.27 ± 0.16,-3 ± 0.26
AACGAGCAAUAUUACGCAGA,-4.04 ± 0.3,-2.18 ± 0.23
AACGAGCAAUAUUACGCCAA,-2.5 ± 0.19,-3.1 ± 0.22
AACGAGCAAUAUUACGCCCG,-1.98 ± 0.32,-0.148 ± 0.33
AACGAGCAAUAUUACGCCCU,-1.66 ± 0.12,-0.745 ± 0.17
AACGAGCAAUAUUACGCCGG,-2.42 ± 0.4,-0.855 ± 0.34

Sequence,self-splicing fitness (ln) (30 °C),self-splicing fitness (ln) (37 °C)
AACGAGCAAUAUUACGCCUA,-3.36 ± 0.41,-1.08 ± 0.3
AACGAGCAAUAUUACGGAUU,-2.3 ± 0.14,-1.4 ± 0.19
AACGAGCAAUAUUACGGCAG,,-3.6 ± 0.36
AACGAGCAAUAUUACGGUGC,-3.15 ± 0.3,-2.69 ± 0.33
AACGAGCAAUAUUACGUCAC,-4.01 ± 0.23,-1.83 ± 0.22
AACGAGCAAUAUUACGUCGG,-3.25 ± 0.26,-0.594 ± 0.15
AACGAGCAAUAUUACGUCUA,-2.06 ± 0.17,-0.756 ± 0.12
AACGAGCAAUAUUACGUGUG,-3.18 ± 0.13,-2.57 ± 0.14
AACGAGCAAUAUUACGUGUU,,-3.62 ± 0.34
AACGAGCAAUAUUACGUUCC,-3.09 ± 0.36,-2.41 ± 0.3
AACGAGCAAUAUUACGUUGG,-3.75 ± 0.24,-2.86 ± 0.25
AACUAGCAAUAUUACGACUC,-0.19 ± 0.057,0.0401 ± 0.079
AACUAGCAAUAUUACGAUCG,-0.822 ± 0.074,0.0491 ± 0.1
AACUAGCAAUAUUACGAUGU,-0.797 ± 0.082,-0.157 ± 0.12
AACUAGCAAUAUUACGCUCA,-0.21 ± 0.1,0.239 ± 0.14
AACUAGCAAUAUUACGGAAG,-2.57 ± 0.13,-1.49 ± 0.12
AACUAGCAAUAUUACGGGGU,-3.93 ± 0.3,-2.34 ± 0.18
AACUAGCAAUAUUACGUCCU,-0.111 ± 0.092,1.04 ± 0.12
AACUAGCAAUAUUACGUCGG,-3.57 ± 0.14,-2.26 ± 0.16
AACUAGCAAUAUUACGUGCG,-0.832 ± 0.067,-0.0538 ± 0.078
AACUAGCAAUAUUACGUUCG,-3.36 ± 0.26,-1.79 ± 0.16
AAGAAGCAAUAUUACGAAUA,-1.86 ± 0.17,-0.73 ± 0.12
AAGAAGCAAUAUUACGACCU,0.116 ± 0.099,-0.338 ± 0.11
AAGAAGCAAUAUUACGACGA,-0.362 ± 0.093,-0.274 ± 0.099
